Drawing on the Human Domainome abundance scans (Beltran et al. 2025), this text covers abundance fitness for 81 variants.

To fix the notation:
B1: Far upstream element-binding protein 1, residues 98 to 169; numbered along this chain, Q96AE4 (parent)
chain: RSVMTEEYKVPDGMVGFIIGRGGEQISRIQQESGCKIQIAPDSGGLPERSCMLTGTPESVQSAKRLLDQIVE
B2: Gamma-crystallin C, residues 91 to 170; numbered along this chain, P07315 (parent)
chain: RLYEREDHKGLMMELSEDCPSIQDRFHLSEIRSLHVLEGCWVLYELPNYRGRQYLLRPQEYRRCQDWGAMDAKAGSLRRV

± gives the uncertainty stated by the source.

Variants of B1 are the subject of the first data set. In words: abundance fitness (aPCA) (normalised: wild type 0, dead -1); higher = more abundant; growth selection in yeast, the domain comes from the species named. As to conditions: Homo sapiens.
On to RSVMTEEYKVPDGMVGFIIGRGGEQISRIQQESGCKIQIAPDSGGLPERSCMLTGTPESVQSAKRLLDQCVE, for which the abundance fitness was found to be 0.004 ± 0.038. Same read-out and setting: the same measure for RSVMTEEYKVPDGMVGFIIGRGGEQISRIQQESGCKIQIAPDSGGLPERSCMLTGTPESVQSAKRLLDQPVE: -0.259 ± 0.032; for RSVMTEEYKVPDGMVGFIIGRGGEQISRIQQESGCKIQIAPDSGGLPERSCMLTGTPESVQSAKRLLDQYVE: -0.003 ± 0.04. Still for that read-out and setting: under RSVMTEEYKVPDGMVGFIIGRGGEQISRIQQESGCKIQIAPDSGGLPERSCMLTGTPESVQSAKRLLDQEVE stands 0.001 ± 0.03. As to RSVMTEEYKVPDGMVGFIIGRGGEQISRIQQESGCKIQIAPDSGGLPERSCMLTGTPESVQSAKRLLDQVVE, the abundance fitness turned out to be 0.001 ± 0.027.

As to RSVMTEEYKVPDGMVGFIIGRGGEQISRIQQESGCKIQIAPDSGGLPERSCMLTGTPESVQSAKRLLDQKVE, the abundance fitness is -0.03 ± 0.031. The same measure, in the same setting: the same measure for RSVMTEEYKVPDGMVGFIIGRGGEQISRIQQESGCKIQIAPDSGGLPERSCMLTGTPESVQSAKRLLDQFVE: 0.024 ± 0.045; for RSVMTEEYKVPDGMVGFIIGRGGEQISRIQQESGCKIQIAPDSGGLPERSCMLTGTPESVQSAKRLLDQAVE: 0.062 ± 0.028.

Regarding RSVMTEEYKVPDGMVGFIIGRGGEQISRIQQESGCKIQIAPDSGGLPERSCMLTGTPESVQSAKRLLDQRVE, the abundance fitness is -0.013 ± 0.024. Still for that read-out and setting: under RSVMTEEYKVPDGMVGFIIGRGGEQISRIQQESGCKIQIAPDSGGLPERSCMLTGTPESVQSAKRLLDQHVE stands -0.062 ± 0.042; under RSVMTEEYKVPDGMVGFIIGRGGEQISRIQQESGCKIQIAPDSGGLPERSCMLTGTPESVQSAKRLLDQWVE, -0.02 ± 0.029.

As for RSVMTEEYKVPDGMVGFIIGRGGEQISRIQQESGCKIQIAPDSGGLPERSCMLTGTPESVQSAKRLLDQGVE, the abundance fitness is -0.11 ± 0.025. RSVMTEEYKVPDGMVGFIIGRGGEQISRIQQESGCKIQIAPDSGGLPERSCMLTGTPESVQSAKRLLDQQVE: the abundance fitness is -0.019 ± 0.031. The same measure, in the same setting: under RSVMTEEYKVPDGMVGFIIGRGGEQISRIQQESGCKIQIAPDSGGLPERSCMLTGTPESVQSAKRLLDQSVE stands -0.046 ± 0.028. For RSVMTEEYKVPDGMVGFIIGRGGEQISRIQQESGCKIQIAPDSGGLPERSCMLTGTPESVQSAKRLLDQNVE, the abundance fitness is -0.142 ± 0.04.

As to RSVMTEEYKVPDGMVGFIIGRGGEQISRIQQESGCKIQIAPDSGGLPERSCMLTGTPESVQSAKRLLDQIVD, the abundance fitness was -0.048 ± 0.042. The same measure, in the same setting: the same measure for RSVMTEEYKVPDGMVGFIIGRGGEQISRIQQESGCKIQIAPDSGGLPERSCMLTGTPESVQSAKRLLDQIVV: 0.051 ± 0.038; for RSVMTEEYKVPDGMVGFIIGRGGEQISRIQQESGCKIQIAPDSGGLPERSCMLTGTPESVQSAKRLLDQIVY: -0.01 ± 0.065; for RSVMTEEYKVPDGMVGFIIGRGGEQISRIQQESGCKIQIAPDSGGLPERSCMLTGTPESVQSAKRLLDQIVW: -0.008 ± 0.037. Same read-out and setting: the same measure for RSVMTEEYKVPDGMVGFIIGRGGEQISRIQQESGCKIQIAPDSGGLPERSCMLTGTPESVQSAKRLLDQIVT: 0.05 ± 0.036. Still for that read-out and setting: the same measure for RSVMTEEYKVPDGMVGFIIGRGGEQISRIQQESGCKIQIAPDSGGLPERSCMLTGTPESVQSAKRLLDQIVG: 0.024 ± 0.029; for RSVMTEEYKVPDGMVGFIIGRGGEQISRIQQESGCKIQIAPDSGGLPERSCMLTGTPESVQSAKRLLDQIVN: -0.11 ± 0.053. For RSVMTEEYKVPDGMVGFIIGRGGEQISRIQQESGCKIQIAPDSGGLPERSCMLTGTPESVQSAKRLLDQIVF, the abundance fitness was -0.111 ± 0.064. On the same count and under the same terms, the same measure for RSVMTEEYKVPDGMVGFIIGRGGEQISRIQQESGCKIQIAPDSGGLPERSCMLTGTPESVQSAKRLLDQIVM: -0.01 ± 0.052. On the same count and under the same terms, the same measure for RSVMTEEYKVPDGMVGFIIGRGGEQISRIQQESGCKIQIAPDSGGLPERSCMLTGTPESVQSAKRLLDQIVA: 0.04 ± 0.034; for RSVMTEEYKVPDGMVGFIIGRGGEQISRIQQESGCKIQIAPDSGGLPERSCMLTGTPESVQSAKRLLDQIVK: -0.129 ± 0.043; for RSVMTEEYKVPDGMVGFIIGRGGEQISRIQQESGCKIQIAPDSGGLPERSCMLTGTPESVQSAKRLLDQIVP: -0.065 ± 0.042. Turning to RSVMTEEYKVPDGMVGFIIGRGGEQISRIQQESGCKIQIAPDSGGLPERSCMLTGTPESVQSAKRLLDQIVC, the abundance fitness is -0.034 ± 0.046. With RSVMTEEYKVPDGMVGFIIGRGGEQISRIQQESGCKIQIAPDSGGLPERSCMLTGTPESVQSAKRLLDQIVS, the abundance fitness turned out to be 0.012 ± 0.035.

As to RSVMTEEYKVPDGMVGFIIGRGGEQISRIQQESGCKIQIAPDSGGLPERSCMLTGTPESVQSAKRLLDQIVH, the abundance fitness was -0.007 ± 0.053. Consider RSVMTEEYKVPDGMVGFIIGRGGEQISRIQQESGCKIQIAPDSGGLPERSCMLTGTPESVQSAKRLLDWIVE, for which the abundance fitness was -0.274 ± 0.029. Still for that read-out and setting: the same measure for RSVMTEEYKVPDGMVGFIIGRGGEQISRIQQESGCKIQIAPDSGGLPERSCMLTGTPESVQSAKRLLDYIVE: -0.162 ± 0.039; for RSVMTEEYKVPDGMVGFIIGRGGEQISRIQQESGCKIQIAPDSGGLPERSCMLTGTPESVQSAKRLLDQIYE: -0.183 ± 0.042.

Consider RSVMTEEYKVPDGMVGFIIGRGGEQISRIQQESGCKIQIAPDSGGLPERSCMLTGTPESVQSAKRLLDQITE, for which the abundance fitness was -0.083 ± 0.029.

On to RSVMTEEYKVPDGMVGFIIGRGGEQISRIQQESGCKIQIAPDSGGLPERSCMLTGTPESVQSAKRLLDQIWE, for which the abundance fitness is -0.094 ± 0.032. The same measure, in the same setting: under RSVMTEEYKVPDGMVGFIIGRGGEQISRIQQESGCKIQIAPDSGGLPERSCMLTGTPESVQSAKRLLDQIAE stands -0.036 ± 0.029. As for RSVMTEEYKVPDGMVGFIIGRGGEQISRIQQESGCKIQIAPDSGGLPERSCMLTGTPESVQSAKRLLDQINE, the abundance fitness is -0.087 ± 0.044. With RSVMTEEYKVPDGMVGFIIGRGGEQISRIQQESGCKIQIAPDSGGLPERSCMLTGTPESVQSAKRLLDQIME, the abundance fitness was -0.088 ± 0.038. Same read-out and setting: the same measure for RSVMTEEYKVPDGMVGFIIGRGGEQISRIQQESGCKIQIAPDSGGLPERSCMLTGTPESVQSAKRLLDQIRE: -0.046 ± 0.024; for RSVMTEEYKVPDGMVGFIIGRGGEQISRIQQESGCKIQIAPDSGGLPERSCMLTGTPESVQSAKRLLDQIGE: -0.061 ± 0.024; for RSVMTEEYKVPDGMVGFIIGRGGEQISRIQQESGCKIQIAPDSGGLPERSCMLTGTPESVQSAKRLLDQIQE: -0.008 ± 0.036. Take RSVMTEEYKVPDGMVGFIIGRGGEQISRIQQESGCKIQIAPDSGGLPERSCMLTGTPESVQSAKRLLDQICE: the abundance fitness was -0.044 ± 0.037. As to RSVMTEEYKVPDGMVGFIIGRGGEQISRIQQESGCKIQIAPDSGGLPERSCMLTGTPESVQSAKRLLDQIPE, the abundance fitness is -0.047 ± 0.035. Still for that read-out and setting: the same measure for RSVMTEEYKVPDGMVGFIIGRGGEQISRIQQESGCKIQIAPDSGGLPERSCMLTGTPESVQSAKRLLDQIFE: -0.065 ± 0.041; for RSVMTEEYKVPDGMVGFIIGRGGEQISRIQQESGCKIQIAPDSGGLPERSCMLTGTPESVQSAKRLLDQIKE: -0.031 ± 0.036; for RSVMTEEYKVPDGMVGFIIGRGGEQISRIQQESGCKIQIAPDSGGLPERSCMLTGTPESVQSAKRLLDQIDE: -0.114 ± 0.038. For the variant RSVMTEEYKVPDGMVGFIIGRGGEQISRIQQESGCKIQIAPDSGGLPERSCMLTGTPESVQSAKRLLDQIHE, the abundance fitness is -0.128 ± 0.043. Turning to RSVMTEEYKVPDGMVGFIIGRGGEQISRIQQESGCKIQIAPDSGGLPERSCMLTGTPESVQSAKRLLDQIIE, the abundance fitness is -0.077 ± 0.039.

Take RSVMTEEYKVPDGMVGFIIGRGGEQISRIQQESGCKIQIAPDSGGLPERSCMLTGTPESVQSAKRLLDQIEE: the abundance fitness was -0.089 ± 0.031. Turning to RSVMTEEYKVPDGMVGFIIGRGGEQISRIQQESGCKIQIAPDSGGLPERSCMLTGTPESVQSAKRLLDQISE, the abundance fitness was -0.074 ± 0.027.

Variants of B2 are the subject of the next data set. The data set is described as above. Particulars: Homo sapiens.
Regarding Y3A, the abundance fitness was -0.771 ± 0.37. The same measure, in the same setting: under Y3V stands -0.949 ± 0.18. Y3P: the abundance fitness was -0.807 ± 0.38. Same read-out and setting: under Y3R stands -0.846 ± 0.27; under Y3F, -0.238 ± 0.21. Still for that read-out and setting: under Y3N stands -0.633 ± 0.43; under Y3K, -0.948 ± 0.27. With Y3H, the abundance fitness was -0.598 ± 0.24. On the same count and under the same terms, the same measure for Y3Q: -0.88 ± 0.35; for Y3G: -0.955 ± 0.2; for Y3L: -1.04 ± 0.49. On the same count and under the same terms, under Y3C stands -0.64 ± 0.41; under Y3W, -0.324 ± 0.095. Same read-out and setting: under R5A stands -0.309 ± 0.16; under R5L, -0.029 ± 0.084.

In the case of R5P, the abundance fitness was -0.788 ± 0.32.

On to R5G, for which the abundance fitness was -0.105 ± 0.063.

Turning to R5H, the abundance fitness was 0.185 ± 0.15. Still for that read-out and setting: the same measure for R5D: -0.175 ± 0.12; for R5M: 0.047 ± 0.13; for R5S: -0.144 ± 0.14. On the same count and under the same terms, under R5W stands -0.203 ± 0.092. On the same count and under the same terms, under R5V stands -0.429 ± 0.079; under R5T, -0.747 ± 0.33.

On to E6T, for which the abundance fitness is -0.362 ± 0.21. As to E6G, the abundance fitness was -0.803 ± 0.1. The same measure, in the same setting: the same measure for E6M: -0.698 ± 0.48; for E6L: -0.892 ± 0.32. As to E6W, the abundance fitness is -0.718 ± 0.15.

As for E6R, the abundance fitness was -0.642 ± 0.096. Still for that read-out and setting: the same measure for E6A: -0.284 ± 0.082.
